Key:
[1] = tested on: HeLa Kyoto; assay: thermal stability score vs G1/S (z-score of summed log2 fold changes over temperatures); higher = more thermally stable than in G1/S
[2] = tested on: HeLa Kyoto; assay: solubility in G1/S (NP-40 vs SDS abundance) (log2 ratio); higher = more soluble; settings: cell cycle stage: G1/S
[3] = tested on: HeLa Kyoto; assay: melting temperature (median over replicates), in situ; higher = more thermally stable
[4] = tested on: HeLa Kyoto; assay: solubility change mitosis vs G1/S (difference of NP-40 vs SDS log2 ratios) (log2 ratio difference); higher = more soluble in mitosis
[5] = cell cycle stage: early G1 (4.5 h after nocodazole release)
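Wherever melting temperature (median over replicates), in situ is given: HeLa Kyoto cells synchronized by double thymidine or nocodazole block, proteins quantified by TMT10plex mass spectrometry, three independent biological replicates.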
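Wherever solubility change mitosis vs G1/S (difference of NP-40 vs SDS log2 ratios) is given: synchronized HeLa Kyoto cells (double thymidine block for G1/S, nocodazole release for mitosis), protein amounts in NP-40 versus SDS lysates quantified by mass spectrometry, three biological replicates.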
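Wherever solubility in G1/S (NP-40 vs SDS abundance) is given: HeLa Kyoto cells arrested at G1/S by double thymidine block, proteins quantified by TMT10plex mass spectrometry in mild NP-40 versus SDS extracts, three biological replicates.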
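Wherever thermal stability score vs G1/S (z-score of summed log2 fold changes over temperatures) is given: synchronized HeLa Kyoto cells, proteins quantified by TMT10plex mass spectrometry, three biological replicates, mitosis taken 0.5 h after nocodazole release, G1/S directly after double thymidine block.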

Sequence	thermal stability score [1, 5]	thermal stability score ([1]; cell cycle stage: mitosis)	solubility in G1/S (log2) [2]	melting temperature ([3]; cell cycle stage: G1/S) [°C]	melting temperature ([3]; cell cycle stage: mitosis) [°C]	solubility change mitosis (log2) [4]
MEFYESAYFIVLIPSIVITVIFLFFWLFMKETLYDEVLAKQKREQKLIPTKTDKKKAEKKKNKKKEIQNGNLHESDSESVPRDFKLSDALAVEDDQVAPVPLNVVETSSSVRERKKKEKKQKPVLEEQVIKESDASKIPGKKVEPVPVTKQPTPPSEAAASKKKPGQKKSKNGSDDQDKKVETLMVPSKRQEALPLHQETKQESGSGKKKASSKKQKTENVFVDEPLIHATTYIPLMDNADSSPVVDKREVIDLLKPDQVEGIQKSGTKKLKTETDKENAEVKFKDFLLSLKTMMFSEDEALCVVDLLKEKSGVIQDALKKSSKGELTTLIHQLQEKDKLLAAVKEDAAATKDRCKQLTQEMMTEKERSNVVITRMKDRIGTLEKEHNVFQNKIHVSYQETQQMQMKFQQVREQMEAEIAHLKQENGILRDAVSNTTNQLESKQSAELNKLRQDYARLVNELTEKTGKLQQEEVQKKNAEQAATQLKVQLQEAERRWEEVQSYIRKRTAEHEAAQQDLQSKFVAKENEVQSLHSKLTDTLVSKQQLEQRLMQLMESEQKRVNKEESLQMQVQDILEQNEALKAQIQQFHSQIAAQTSASVLAEELHKVIAEKDKQIKQTEDSLASERDRLTSKEEELKDIQNMNFLLKAEVQKLQALANEQAAAAHELEKMQQSVYVKDDKIRLLEEQLQHEISNKMEEFKILNDQNKALKSEVQKLQTLVSEQPNKDVVEQMEKCIQEKDEKLKTVEELLETGLIQVATKEEELNAIRTENSSLTKEVQDLKAKQNDQVSFASLVEELKKVIHEKDGKIKSVEELLEAELLKVANKEKTVQDLKQEIKALKEEIGNVQLEKAQQLSITSKVQELQNLLKGKEEQMNTMKAVLEEKEKDLANTGKWLQDLQEENESLKAHVQEVAQHNLKEASSASQFEELEIVLKEKENELKRLEAMLKERESDLSSKTQLLQDVQDENKLFKSQIEQLKQQNYQQASSFPPHEELLKVISEREKEISGLWNELDSLKDAVEHQRKKNNDLREKNWEAMEALASTEKMLQDKVNKTSKERQQQVEAVELEAKEVLKKLFPKVSVPSNLSYGEWLHGFEKKAKECMAGTSGSEEVKVLEHKLKEADEMHTLLQLECEKYKSVLAETEGILQKLQRSVEQEENKWKVKVDESHKTIKQMQSSFTSSEQELERLRSENKDIENLRREREHLEMELEKAEMERSTYVTEVRELKDLLTELQKKLDDSYSEAVRQNEELNLLKAQLNETLTKLRTEQNERQKVAGDLHKAQQSLELIQSKIVKAAGDTTVIENSDVSPETESSEKETMSVSLNQTVTQLQQLLQAVNQQLTKEKEHYQVLE [KTN1]	5.06	7.49	0.422	50	50.6	0.0644
MEGAGENAPESSSSAPGSEESARDPQVPPPEEESGDCARSLEAVPKKLCGYLSKFGGKGPIRGWKSRWFFYDERKCQLYYSRTAQDANPLDSIDLSSAVFDCKADAEEGIFEIKTPSRVITLKAATKQAMLYWLQQLQMKRWEFHNSPPAPPATPDAALAGNGPVLHLELGQEEAELEEFLCPVKTPPGLVGVAAALQPFPALQNISLKHLGTEIQNTMHNIRGNKQAQGTGHEPPGEDSPQSGEPQREEQPLASDASTPGREPEDSPKPAPKPSLTISFAQKAKRQNNTFPFFSEGITRNRTAQEKVAALEQQVLMLTKELKSQKELVKILHKALEAAQQEKRASSAYLAAAEDKDRLELVRHKVRQIAELGRRVEALEQERESLAHTASLREQQVQELQQHVQLLMDKNHAKQQVICKLSEKVTQDFTHPPDQSPLRPDAANRDFLSQQGKIEHLKDDMEAYRTQNCFLNSEIHQVTKIWRKVAEKEKALLTKCAYLQARNCQVESKYLAGLRRLQEALGDEASECSELLRQLVQEALQWEAGEASSDSIELSPISKYDEYGFLTVPDYEVEDLKLLAKIQALESRSHHLLGLEAVDRPLRERWAALGDLVPSAELKQLLRAGVPREHRPRVWRWLVHLRVQHLHTPGCYQELLSRGQAREHPAARQIELDLNRTFPNNKHFTCPTSSFPDKLRRVLLAFSWQNPTIGYCQGLNRLAAIALLVLEEEESAFWCLVAIVETIMPADYYCNTLTASQVDQRVLQDLLSEKLPRLMAHLGQHHVDLSLVTFNWFLVVFADSLISNILLRVWDAFLYEGTKVVFRYALAIFKYNEKEILRLQNGLEIYQYLRFFTKTISNSRKLMNIAFNDMNPFRMKQLRQLRMVHRERLEAELRELEQLKAEYLERRASRRRAVSEGCASEDEVEGEA [TBC1D2]	1.39	0.724	-0.179	49.7	49.4	-0.0396
MEGGGGRDEPSACRAGDVNMDDPKKEDILLLADEKFDFDLSLSSSSANEDDEVFFGPFGHKERCIAASLELNNPVPEQPPLPTSESPFAWSPLAGEKFVEVYKEAHLLALHIESSSRNQAAQAAKPEDPRSQGVERFIQESKLKINLFEKEKEMKKSPTSLKRETYYLSDSPLLGPPVGEPRLLASSPALPSSGAQARLTRAPGPPHSAHALPRESCTAHAASQAATQRKPGTKLLLPRAASVRGRSIPGAAEKPKKEIPASPSRTKIPAEKESHRDVLPDKPAPGAVNVPAAGSHLGQGKRAIPVPNKLGLKKTLLKAPGSTSNLARKSSSGPVWSGASSACTSPAVGKAKSSEFASIPANSSRPLSNISKSGRMGPAMLRPALPAGPVGASSWQAKRVDVSELAAEQLTAPPSASPTQPQTPEGGGQWLNSSCAWSESSQLNKTRSIRRRDSCLNSKTKVMPTPTNQFKIPKFSIGDSPDSSTPKLSRAQRPQSCTSVGRVTVHSTPVRRSSGPAPQSLLSAWRVSALPTPASRRCSGLPPMTPKTMPRAVGSPLCVPARRRSSEPRKNSAMRTEPTRESNRKTDSRLVDVSPDRGSPPSRVPQALNFSPEESDSTFSKSTATEVAREEAKPGGDAAPSEALLVDIKLEPLAVTPDAASQPLIDLPLIDFCDTPEAHVAVGSESRPLIDLMTNTPDMNKNVAKPSPVVGQLIDLSSPLIQLSPEADKENVDSPLLKF [GTSE1]	0.104	-0.0609	0.351	49	50.3	0.505
MEGGGGSGNKTTGGLAGFFGAGGAGYSHADLAGVPLTGMNPLSPYLNVDPRYLVQDTDEFILPTGANKTRGRFELAFFTIGGCCMTGAAFGAMNGLRLGLKETQNMAWSKPRNVQILNMVTRQGALWANTLGSLALLYSAFGVIIEKTRGAEDDLNTVAAGTMTGMLYKCTGGLRGIARGGLTGLTLTSLYALYNNWEHMKGSLLQQSL [TIMM23]	-1.18	-2.03	0.455	57.3	55.6	-0.145
MEGGLGRAVCLLTGASRGFGRTLAPLLASLLSPGSVLVLSARNDEALRQLEAELGAERSGLRVVRVPADLGAEAGLQQLLGALRELPRPKGLQRLLLINNAGSLGDVSKGFVDLSDSTQVNNYWALNLTSMLCLTSSVLKAFPDSPGLNRTVVNISSLCALQPFKGWALYCAGKAARDMLFQVLALEEPNVRVLNYAPGPLDTDMQQLARETSVDPDMRKGLQELKAKGKLVDCKVSAQKLLSLLEKDEFKSGAHVDFYDK [SPR]	-5.72	-2.25	0.0864	53.8	52.3	-0.117
MEGISNFKTPSKLSEKKKSVLCSTPTINIPASPFMQKLGFGTGVNVYLMKRSPRGLSHSPWAVKKINPICNDHYRSVYQKRLMDEAKILKSLHHPNIVGYRAFTEANDGSLCLAMEYGGEKSLNDLIEERYKASQDPFPAAIILKVALNMARGLKYLHQEKKLLHGDIKSSNVVIKGDFETIKICDVGVSLPLDENMTVTDPEACYIGTEPWKPKEAVEENGVITDKADIFAFGLTLWEMMTLSIPHINLSNDDDDEDKTFDESDFDDEAYYAALGTRPPINMEELDESYQKVIELFSVCTNEDPKDRPSAAHIVEALETDV [PBK]	1.05	3.4	0.0996	47.7	47.6	0.0797
MEGPGLGSQCRNHSHGPHPPGFGRYGICAHENKELANAREALPLIEDSSNCDIVKATQYGIFERCKELVEAGYDVRQPDKENVSLLHWAAINNRLDLVKFYISKGAVVDQLGGDLNSTPLHWAIRQGHLPMVILLLQHGADPTLIDGEGFSSIHLAVLFQHMPIIAYLISKGQSVNMTDVNGQTPLMLSAHKVIGPEPTGFLLKFNPSLNVVDKIHQNTPLHWAVAAGNVNAVDKLLEAGSSLDIQNVKGETPLDMALQNKNQLIIHMLKTEAKMRANQKFRLWRWLQKCELFLLLMLSVITMWAIGYILDFNSDSWLLKGCLLVTLFFLTSLFPRFLVGYKNLVYLPTAFLLSSVFWIFMTWFILFFPDLAGAPFYFSFIFSIVAFLYFFYKTWATDPGFTKASEEEKKVNIITLAETGSLDFRTFCTSCLIRKPLRSLHCHVCNCCVARYDQHCLWTGRCIGFGNHHYYIFFLFFLSMVCGWIIYGSFIYLSSHCATTFKEDGLWTYLNQIVACSPWVLYILMLATFHFSWSTFLLLNQLFQIAFLGLTSHERISLQKQSKHMKQTLSLRKTPYNLGFMQNLADFFQCGCFGLVKPCVVDWTSQYTMVFHPAREKVLRSV [ZDHHC13]	-0.948	-1.02	0.0826	51.6	51.4	-0.158
MEGSLEREAPAGALAAVLKHSSTLPPESTQVRGYDFNRGVNYRALLEAFGTTGFQATNFGRAVQQVNAMIEKKLEPLSQDEDQHADLTQSRRPLTSCTIFLGYTSNLISSGIRETIRYLVQHNMVDVLVTTAGGVEEDLIKCLAPTYLGEFSLRGKELRENGINRIGNLLVPNENYCKFEDWLMPILDQMVMEQNTEGVKWTPSKMIARLGKEINNPESVYYWAQKNHIPVFSPALTDGSLGDMIFFHSYKNPGLVLDIVEDLRLINTQAIFAKCTGMIILGGGVVKHHIANANLMRNGADYAVYINTAQEFDGSDSGARPDEAVSWGKIRVDAQPVKVYADASLVFPLLVAETFAQKMDAFMHEKNED [DHPS]	-0.0223	-1.85	0.164	56.2	56.8	-0.0341
MEKFGMNFGGGPSKKDLLETIETQKKQLLQYQARLKDVVRAYKSLLKEKEALEASIKVLSVSHEADVGLAGVQLPGLTFPDSVDDRCSTHSEDSTGTATSLDTAASLTSTKGEFGVEDDRPARGPPPPKSEEASWSESGVSSSSGDGPFAGGEVDKRLHQLKTQLATLTSSLATVTQEKSRMEASYLADKKKMKQDLEDASNKAEEERARLEGELKGLQEQIAETKARLITQQHDRAQEQSDHALMLRELQKLLQEERTQRQDLELRLEETREALAGRAYAAEQMEGFELQTKQLTREVEELKSELQAIRDEKNQPDPRLQELQEEAARLKSHFQAQLQQEMRKTALAEDQLRQQSQVEEQRVAALENQISEVSELLGTYEKAKQKDQLAIQKLKERILQLDLENKTLALAASSRSPLDSHGEESSLDVNVLKDKMEKLKRLLQVAARKSQVTLDVEKLCDLEIMPSSEAADGEKATALYYQQELKQLKEEFERYKMRAQVVLKSKNTKDGNLGKELEAAQEQLAELKEKYISLRLSCEELEHQHQQEADDWKQELARLQQLHRQELERCQLDFRDRTLKLEEELHKQRDRALAVLTEKDLELEQLRSVALASGLPGRRSPVGGGGPGDPADTSSSDSLTQALQLAAANEPTFFLYAEQLARKEVEITSLRKQKHRLEVEVHQLQDRLLEEGERHREEVAALQSHIEKNIRDQSREGANLEYLKNIIYRFLTLPDSLGRQQTLTAILTILHFSPEEKQVIMRLPTSASWWPSGKR [GCC1]	-0.43	0.117	0.527	48.7	51.5	-0.114
